From patent US20030232757A1

Target: T1, CryET39 crystal protein (Bacillus thuringiensis delta-endotoxin, approximately 44-kDa) (Bacillus thuringiensis (strain EG5899))
T1 sequence: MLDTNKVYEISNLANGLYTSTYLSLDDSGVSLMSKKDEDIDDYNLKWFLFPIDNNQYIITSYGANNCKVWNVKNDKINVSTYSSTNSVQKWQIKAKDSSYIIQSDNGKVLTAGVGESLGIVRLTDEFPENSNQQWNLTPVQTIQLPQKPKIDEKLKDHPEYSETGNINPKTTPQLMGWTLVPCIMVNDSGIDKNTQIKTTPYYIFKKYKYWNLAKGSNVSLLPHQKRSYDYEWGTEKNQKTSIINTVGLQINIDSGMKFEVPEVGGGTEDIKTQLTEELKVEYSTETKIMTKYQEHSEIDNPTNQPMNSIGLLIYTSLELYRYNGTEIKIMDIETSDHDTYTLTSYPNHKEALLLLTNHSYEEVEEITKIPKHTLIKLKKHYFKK
Assay: cell-based or functional assay

B1: CryET74 crystal protein (Bacillus thuringiensis delta-endotoxin, approximately 13-15-kDa) (protein)
chain: MSAREVHIEINNKTRHTLQLEDKTKLSGGRWRTSPTNVARDTIKTFVAESHGFMTGVEGIIYFSVNGDAEISLHFDNPYIGSNKCDGSSDKPEYEVITQSGSGDKSHVTYTIQTVSLRL
93.3: Percent Control (WCRW larval mortality corrected for diluent control); 50:50 mixture EG11935 (CryET74) + EG11937 (2) (CryET39), dose 160 µg/well (percent control)
100: Percent Control (WCRW larval mortality corrected for diluent control); 50:50 mixture EG11935 (CryET74) + EG11937 (1) (CryET39), dose 80 µg/well (percent control) | Percent Control (WCRW larval mortality corrected for diluent control); 50:50 mixture EG11935 (CryET74) + EG11937 (1) (CryET39), dose 160 µg/well (percent control) | Percent Control (WCRW larval mortality corrected for diluent control); 50:50 mixture EG11935 (CryET74) + EG11937 (2) (CryET39), dose 80 µg/well (percent control) | Percent Control (WCRW larval mortality corrected for diluent control); EG11936 (CryET39 + CryET74 co-expressed), dose 80 µg/well (percent control) | Percent Control (WCRW larval mortality corrected for diluent control); EG11936 (CryET39 + CryET74 co-expressed), dose 160 µg/well (percent control)
